Consider two substances from PMC3344845, “Structure of Bradavidin – C-Terminal Residues Act as Intrinsic Ligands” (PLoS ONE, 2012).

A word on the Kd: it is the concentration at which binding is half-saturated. A high value points to a looser complex. As usually defined, the stoichiometry N is a count of units in the complex or per binding partner.

Assay [1] addresses core-bradavidin (Bradyrhizobium japonicum). In words: ITC; core-bradavidin in the cell, Brad-tag–EGFP in the syringe, 25°C, 50 mM sodium phosphate pH 7.0, 100 mM NaCl; n is the stoichiometry per subunit. A general note: ITC needs no label: the signal is the heat of the interaction.
Assay [2] shares this target. As to the kind of experiment: ITC; core-bradavidin in the cell, ligand (Brad-tag or Brad-tag–EGFP) in the syringe, 15°C, 50 mM sodium phosphate pH 7.0, 100 mM NaCl; n is the stoichiometry per subunit.
Assay [3] concerns the target Brad-tag–EGFP–His-tag fusion protein (Bradyrhizobium japonicum). As to the kind of experiment: BLI; Octet RED384; Brad-tag–EGFP–His-tag (0.03 mg/ml, 700 s) held on anti-Penta-HIS biosensors; higher concentrations: core-bradavidin 0.5, wt bradavidin 1.2, avidin 1.8, streptavidin 1.7, rhizavidin 2.0 mg/ml for 200 s; controls with biotin (3.2 mM for core-bradavidin, 13 mM for avidin) and plain sensors; 30°C. In general terms: In BLI a coated tip is dipped into the sample, and binding shifts an interference pattern.

Consider “Brad-tag–EGFP fusion protein (without His-tag)”, for which, in assay [1], the Kd came to 3.1 µM, the dH is -1 kcal mol^–1 and the stoichiometry N was found to be 0.68. In assay [2], this substance registered an equilibrium dissociation constant (Kd) of 2.8 µM, a dH of -0.5 kcal mol^–1 and a stoichiometry N of 0.68.

In the case of core-bradavidin (domain or fragment), the shift (BLI response) in assay [3] amounted to 1.2 nm.
